Source: the nanobody polyreactivity screen of Harvey et al. (2022)

Assay: yeast display, Sf9 membrane polyspecificity reagent, FACS + sequencing; frameworks hold sequencing errors
Procedure, shortened: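 Nanobodies came from a synthetic yeast display library in Saccharomyces cerevisiae BJ5465, induced with galactose for 36–48 hours and stained for 1 hour at 4 °C with 10% biotinylated, detergent-solubilized Sf9 membrane reagent. Cells were enriched on streptavidin microbeads and then FACS-sorted, with low and high (top ~1%) gates set on anti-HA fluorescence for expression and streptavidin fluorescence for reagent binding. Each polyreactivity label reflects the gate a clone came from. Genes were amplified by colony PCR, sequenced by MiSeq 2 × 250 and filtered by CDR length.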

Row | Sequence | polyreactivity (PSR sort gate)
1 | QVQLVESGGGLVQAGGSLRLSCSASGRIISFYVMGWYRQAPGKDRELVAAISLSGGSTYYADSVKGRFTISRDNAKNTVYLQMNSLKPEDTAVYYCAADQTLVGLPYNYWGQGTQLTVSS | high polyreactivity
2 | QVQLVESGGGLVQAGGSLRLSCAPSGRIFQANAMGWYRQAPGKERELVASISSGVSTNYADYVKGRFTISRDNAKNTVYLQMNSQKQEDTGVYYCADSDPSSAYWVGYYWYDNWGQGTQVTVSS | low polyreactivity
3 | QVQLVESGGGLVQAGGSLRLSCAASGFTYRKYALGWYRQAPGKERELVAVINIVGSTYYADSVKGRFTISRDNAKNTVYLQMYSLTPEDTAVYYCAADWSYRLKYYWYGGFKYWGQGTQVTVSS | high polyreactivity
4 | QVQLVESGGGLVQAGGSLRLSCAASGRTVNIYAMGWYRQAAGKERELVADISYSDGSTDYADSVKGRFTISRDNAKNTVYLQMNSLKPEDTAVYYCAAYYYYYYGFGQRYYSWGQGTQVTVSS | low polyreactivity
5 | QVQLVESGGGLVQAGGSLRLSCAASGRIFNGYTMGWYRQAPGKETEFVATISRSGGSTYYADSVKGRFTISRDHAKNTVYLQMNSLKPEDSAVYYCAKTYPAKWEYDYWGQGTQVTVSS | low polyreactivity
6 | QVQIVESGGGLVQAGGSLRLSFAASGSIFSYNSMGWYRQAPGRERELVAAITPGCTSYYADSVKGLFRISRDNAKNTVYIQMNSLTPEDTAVYYCAADGLSRDTLYPYDYWGQGSQVTVSS | low polyreactivity
7 | QFQLVESGGGLVQAGGSLRLSCAASGSFSGTNAMGWYRQAPGKERELVAGISYGGGSTYYADSVKGRFTISRDNAKNTVYLQMNSLKPEDTAVYYCAKYYAPYRFYYCGQGTQVTVSS | high polyreactivity
8 | QVQLVESGGGFVQAGGSLRLSCAASGNIFESYGMGWYRHAPGKERELVATINSSSGSTYYADSVKGRFTISRDNAKNTVYLQMNSLKPEDTAVYYCAAEWYPYPWGYGYWGQGTQVTVSS | low polyreactivity
9 | QVQLVESGGGLVQAGGSLRLSCAPSGYIFQAYVMGWYRPAPGKERELVAAITSGGGTYYADSVKGRFTISRDNAKNTVYLQMISLKPEDTAVYYCAARYTQRPRRNYWGQGSQVTVSS | high polyreactivity
10 | QVQLVESGGGLVQAGGSLRLSCAASGFTFYPYSMGWYRQAPGKERELVAAITRGGSTYYADSVKGRFTISRDNAKNTVFLQMNSLKPEDTAVYYCNAYWQGYGYYYWGQGTQVTVSS | low polyreactivity
11 | QVKLVESGGGLVQAGGRLRLTCAASGSTISGYAMGWYRQAPGKERQLVATITGGGRTYYADSVKGRFTISRDNAKNTVYLQMNSLKPEDSAVYYFAVRGYHQYKYGYWGQGTQVTVSS | high polyreactivity
12 | QVQLVESGGGLVQAGGSLRLNCSAYGSTFFDYVMGWYRQAPGKERDLVAAITRGGSSNYADSVKGRFTISRDNAKNTVYLQMNRLKPEDTAVYYCNAKRDKGFYWWYNYWGQGNQVTVSS | high polyreactivity
13 | QVQLVESGGGLVQAGGSLRLSCAASGRIFAANAMGWYRQAPGKERELVATISTGGGRTYYADSVKGRFTISRDNAKNTVYLQMNSLKPEDTAVYYCAASRGYLVPTRLAYYYWGQGTQVTVSS | high polyreactivity
14 | QVQLVESGGGLVQAGGSLRLSCAASGIIFGYYAMGWYRQAPGKERELVAAITWSGGSTYYADSVKGRFTISRDNAKNTVYLQMNSLKPEDSAVYYCNADDDGRVSSTIVEYWGQGTQVTVSS | low polyreactivity
15 | QVQLVESGGGLVQAGGSLRLSCAASGSTFYKYAMGWYRQAPGKERELVASITWSGTSTYYADSVKGRFTISRDNAKNTVYLQMNSLKPEDTAVYYCNAGLEYYYWGYTWEFDYWGQGTQVTVSS | low polyreactivity
16 | QVQFVESGGGLVQSGGSLRLSCAASGSIFRAYAMGWYRPAPGKEREFVAAISRRGGSTSYADSVKGRFTISRDYAKNTVYLQMNSLKPEDTAVYYCAATYQILTTSAHDSWGQGTQVTVSS | high polyreactivity
17 | QVQHVESGGGLVQAGGSLRLSCAASGIIFYHNAMGWYRQAPVKERELVASITEIGGSTYYADSVKGLFTISRDNAKSTVYLQMNRLKPEDTAVYYCAAGTLTSFSRYDYWGQGTQVTVSS | low polyreactivity
18 | QVQLVESGGGLVQAGGSLRLSCAASGSTFLNYAMGWYRQAPGKERELVAAISGRGGRTYYADSVKGRFTISRDNAKNTVYLQMNSLKPEDTAFYYCAARIWVSYTSYDYWGQGTQVTVSS | high polyreactivity
19 | QVQLVESGGGLVQAGGSLRLSCAASGSTFTRYGMGRYRQAPGKERELVAAITTSGSSTYYADSVKGRFTISRDNAKNTVYLQMNSLKPEDTAVYYCAADWSSWGFDYWGQGTQVTVSS | low polyreactivity
20 | QVQLVESGGGLVQAGGSLRLSCAASGRTFQYNVMGWYRQAPGKEREFVAAITWNGGSTYYADSVKGRFTISRDNAKNTVYLQMNSLKPEDPAVYYCAARWTKKQEYGYWGQGTQVTVSS | low polyreactivity
21 | QVQLVESGGGLVQAGGSLRLRCAASGRTFSSNAMGWYRQAPGKERELVASISRRGGSTYYADSVKGRFTISRDNAKNSVYVQMNSLKPEDTAVYDCAARQSGQILGYYSRYDYWGQGTQVTVSS | high polyreactivity
22 | QVQLVESGGGLVQAGGSLRLSCAASGGTFERNAMGWYRPAPGKERELVAAITGSGGRTYYADSVKGRFTISRDNAKNTVYLQMNSLKPEDTAVYYCAAVPWWKYNYWGQGTQVTVSS | high polyreactivity

Row | Sequence | polyreactivity (PSR sort gate)
23 | QVQLVESGGGLVQSGGSLRLSCAASGLTFLNNALGWYRQAPGKERELVAAISDGGSPNYADSVKGRFTISRDNAKNTVFLQMNSLKPEDTAVYYCAAVYTSASYGSWGQGTQVTVSS | low polyreactivity
24 | QVQLVESGGGLVQAGGSLRLSCAASGRIFGKYAMGWYRHAPGKERELVAAIRSRGSTTYYADSVKGRFTISRDNAKNTVYLQMNSLKPEDTAVYYCAKDVGGKPWYPYGYWGQGTQVTVSS | high polyreactivity
25 | QVQLVESGGGLVQAGGSLRLSCAASGIIFYPYAMGWYRQAPGKERELVAAISQSGGTTSYADSVKGRFTISRDNAKNTVYLQMNSLKPEDTAVYYCARRVSTRKRYYYWGQGTQVTVSS | high polyreactivity
26 | QDQLVESGGGLVQAGGSLRLSCAASGLISSINAMGWYRQAPGKERELVAAISFSGGRTYYADSVKGRFTISRDNAKNTVYLQMNSLKPEDTAVYYFNAVSGGHRSRYGYWGQGTLVTVSS | high polyreactivity
27 | QVQLVESGGGLVQAGGSLRLSCAASGSTFWWYAMGWYRQAPGKERELVATIRDGGSTNYADSVKGRFTISRDNAKNTVYLQMNSLKPEDTAVYYCNADVYPYYRKPWMDYWGQGTQVTVSS | low polyreactivity
28 | QVQLVESGGGLVQAGGSLRLSCAASGSILGGNAMGWYRQAPGKEWELVAAITFSGGGTYYADSVKGRFTSSRDNAKNTVYLQMNSLKPEDTAVYYCAADKDGYTYEFDYWGQGTQVTVSS | low polyreactivity
29 | QVQLVESVGGLVQAGGSLRLSCPASGSTFRRYAMGWYRQAPGKERELVAAITRGGITYYADSVKGRFTISRDNAKNTFYLQMNSLKPEDTAVYYCAATTFGPYALYPRYYYWGQGTQVTVSS | high polyreactivity
30 | QVQLVESGGGLVQAGGSLRLSCAASGRIFWDNAMGWYRQAPGKERELVAAISDSVVITYYADSVKGRFTISRDNAKNTVYLQMNSLKPEDTAVYYCAADKRGSVYLSSFWMDYWGQGTQVTVSS | low polyreactivity
31 | QVQLVESGGGLVQAGGSLRLSCAASGSTFEYYAMGWYRQAPGKERELVAAISSGPSTTYADSVKGRFTISRDNAKNTVYLQMNSLKPEDTAVYYCAARTYPSYYVTFEYWGQGTQVTVSS | low polyreactivity
32 | QVQLVESGGGLVQAGGSLRLSCAASGITFRGYAMGWYRQAPGKERELVATISSGGSTNYADSVKGRFTISRDNAKNTVDLQRISLKPEDTAVYYCNAVYRRGYGYWGQGTQVTVSS | high polyreactivity
33 | QVQLVESGGGLVQAGGSLRLSCAASGRTFTWNAMGWYRQAPGKERELVADITNNGGSTYYADSVKGRFTISRDNAKNTVYLQMNSLKPEDTAVYYCAKRRNYWFSFDYWGQGTQVTVSS | low polyreactivity
34 | QVQLVESGGGLVQAGGSLRLSCAASGIIFYGYDMGWYRQAPGKERELVAAITWSGGSTYYADSVKGRFTISRDNAKNTVYLQMNSLKPEDTAVYYCNADLDSGYGSYDYWGQGTQVTVSS | low polyreactivity
35 | QVQLVESGGGLVQAGGSLRLSCAASGIFRRYAMGWYRQAPGKERELVAAISYSGGSTEYADSVKGRFTISRDNAKNTVYLQMNSLKPEDTAVYYCAAVNRPRPRRSDYWGQGTQVTVSS | high polyreactivity
36 | QVQLVESGGGLVQAGGSLRLSCAASGRTFAAYAMGWYRQAPGKERELVAGITSSSVRTYYADSVKGRFTISRDNAKNTVYLQMNSLKPEDTAVYYCNARADGSSSRWRPYSKFYYWGQGTQVTVSS | low polyreactivity
37 | QVQLVESGGGLVQAGGSLRLSCAASGRIFRYNTMGRNRHAPGKEREFVAAISYRGASTYYADSVKGRFTISRDNAKNNVYLQMNSLKPEDTAVYYCAAVTISKGFYPYDYWGQGTQVSVSS | high polyreactivity
38 | QVQLVESGGGLVQAGGSLRLSCAASGYTFGQNAMGWYRQAPGKEREFVAAISWSGTSTYYADSVKGRFTISRDNAKNTVYLQMNSLKPEDTALYYCAARSYRYVSRREYWGQGTQVTVSS | high polyreactivity
39 | QVQLVESGGGLVQAGGSLRLSCAASGSIFLTYDMGWYRQAPGKERELVAAITGSGDSTYYADSVKGRFTISRDNAKNTVYLQMNSLKPEDTAVYYCNADGPSTPWVDYGYWGQGTQVTVSS | low polyreactivity
40 | QVQLVESGGGLVQAGGSLRLSCAASGSIFSYYAMGWYRQAPGKERELVADITANDGSTYYADSVKGRFTISRDNAKNTVYLQMHSLKPEVTAVYYCAAASDLYGSIWIETGVTSDYWGQGTQVTVSS | high polyreactivity
41 | QVQLVESGGGLVQAGGSLRLSCAASGGTFVVYAMGWYRQAPGKERELVAAITWIGDSTYYADSVKGRFTISRDNAKNTVYLQMNSLKPEDTAVHYCNAEGWYYLTEYGYWGQGTQVTVSS | low polyreactivity
42 | QVQLVESGGGLVQAGGSLRLSCAASGRTFPYNAMGWYRQAPGKERELVAAITSSGGSTYYADSVKGRFTISRDNAKNTVYLQMNSLKPEDTAVYYFAKGYYSPNYYYWGQGTQVTVSS | high polyreactivity
43 | QVQLVDSGGGLVQAGGSLRLSCAASRNAMGWYRQAPGKERELVGAISFRGGSTYYADSVKGRFTISRDNAKNTVYLQMNSLKPEDTAVYYCAKVQHHDYEGRGFPDAADGYWGQGTQVTVSS | low polyreactivity
